Experimental data reported in PMC10695385.

Target: SYD-2/Liprin-α N-terminal fragment (coiled-coils and IDR) (UniProt Q21049)
Experiment: GFP-trap pull-down, Coomassie gel
Conditions: reference: SAD-1-phosphorylated wild-type SAM; sites S896,S901,S904

binding against the reference: stronger
Substance: SYD-2/Liprin-α SAM domains, 844-1139 (from UniProt Q21049) SAD-1-phosphorylated SAM(3A)
